For experiment [1], the target named is Endo H-treated CTR.38–141 N130D (MBP-free CTR ECD) (human). Kind of experiment: fluorescence polarisation. Background: In fluorescence polarisation assays a small probe gives low polarisation when free and higher when bound to something large.
In experiment [2] the target is Endo H-treated CTR.38–141 WT (MBP-free CTR ECD) (human). Kind of experiment: fluorescence polarisation.
The target of experiment [3] is Glycan-free CTR.38–141 WT (E. coli-produced, MBP-free CTR ECD) (human). As to the kind of experiment: fluorescence polarisation.
For experiment [4], the target named is biotinylated sCT(1–32) [C1A/C7A] (salmon). As to the kind of experiment: BLI.
A further experiment deals with FITC-sCT(22–32) (salmon). As to the kind of experiment: fluorescence polarisation.
The target in experiment [5] is biotinylated sCT(1–32) [C1A/C7A] (salmon). As to the kind of experiment: BLI. This is another data set of the same source. (In BLI a coated tip is dipped into the sample, and binding shifts an interference pattern.)
In experiment [6] the target is FITC-AM(37–52) [S45W/Q50W]. Kind of experiment: fluorescence polarisation.
Experiment [7] deals with FITC-AM(37–52) [S45W/Q50W]. As to the kind of experiment: fluorescence polarisation. This is another data set of the same source.

The record followed here is article PMC7225057.

Where two headings read alike, the source gives them in different places.

One may read the Ki as a dissociation constant, usually derived from enzyme kinetics or from competition with a known ligand. Lower therefore signals tighter binding. As for “salmon calcitonin sCT(22–32), unlabeled (peptide)”, the Ki in experiment [1] was 5600 nM; in experiment [2], 1600 nM; in experiment [3], 11000 nM. Also, the pKI in experiment [1] amounted to 5.26; in experiment [2], 5.81; in experiment [3], 4.97.
By Kd is commonly meant the free concentration of one partner at which half of the binding sites on the other are occupied at equilibrium, for simple one-to-one binding. A lower Kd goes with a tighter complex. As usually defined, the pKD is −log10 of the KD, conventionally taken in molar units. Low values mean a large KD, high ones a small KD. In the case of “Glycan-free CTR.38–141 WT (E. coli-produced, MBP-free CTR ECD) (domain or fragment)”, the equilibrium dissociation constant (Kd) came out at 10800 nM in experiment [4], 2700 nM in the experiment with FITC-sCT(22–32) (salmon) and 30900 nM in experiment [5]. In addition, the negative logarithm of the KD (pKD) in the experiment with FITC-sCT(22–32) (salmon) came out at 5.57.
In the experiment with FITC-sCT(22–32) (salmon), “CTR.34–141 WT (MBP-free CTR ECD, glycosylated, no enzyme treatment) (domain or fragment)” had a Kd of 380 nM and a negative-log KD (pKD) of 6.43.
For orientation: kon means the rate constant with which the complex forms. As for “Endo H-treated CTR.38–141 WT (MBP-free CTR ECD) (domain or fragment)”, in the experiment with FITC-sCT(22–32) (salmon), the Kd came to 500 nM and the pKD came out at 6.3. In addition, the kon in experiment [5] came to 178000 M⁻¹ s⁻¹.
“RAMP1-CLR.29–144 N123D (tethered RAMP1-CLR ECD fusion) (from UniProt O60894 24-111; Q16602 29-144) (receptor)”: in experiment [6], the dissociation constant (Kd) stood at 740 nM and the negative logarithm of the KD (pKD) was 6.13.
In experiment [6], “RAMP1-CLR.29–144 WT, PNGase F-treated (deglycosylated) (from UniProt O60894 24-111; Q16602 29-144) (receptor)” came in with a dissociation constant (Kd) of 1400 nM and a pKD of 5.87.
With “Endo H-treated CTR.38–141 N130D (MBP-free CTR ECD) (domain or fragment)”, the Kd turned out to be 11900 nM in experiment [4], 2000 nM in the experiment with FITC-sCT(22–32) (salmon) and 12400 nM in experiment [5]. Moreover, the pKD in the experiment with FITC-sCT(22–32) (salmon) worked out at 5.7.
In experiment [7], “RAMP1-CLR.29–144 WT (tethered RAMP1-CLR ECD fusion, CGRP receptor ECD) (from UniProt O60894 24-111; Q16602 29-144)” gave a dissociation constant Kd of 280 nM and a pKD of 6.56. In experiment [6], the Kd amounted to 310 nM and the negative logarithm of the KD (pKD) worked out at 6.51.
